According to PMC5027281 (Nature Communications, 2016):

B1: 39.29 scFvFc (scFv, V domains shown)
VH: VQLVESGGGVVQPGKSPRLSCAASGPTFSSYAVHWVRQAPGKGLEWVTLISYDGANQYYADSVKGRFTISRDNSKNTVYLQMNSLRPEDTAVYYCAVPGPVFGIFPPWSYFDNWGQGILVTVSS
VL: IVLTQSPATLSVSPGERATLSCRASQVISHNLAWYQQKPGQAPRLLIYGASTRASGIPARFSGSGSGTDYTLTITSLQPEDFAVYYCQHYSNWPPRLTFGGGTKVEIK
B2: 3I14-gHmL IgG1 (germline heavy chain, mature light chain) (antibody, V domains shown)
VH: QVQLVESGGGVVQPGRSLRLSCAASGFTFSSYGMHWVRQAPGKGLEWVAVISYDGSNKYYADSVKGRFTISRDNSKNTLYLQMNSLRAEDTAVYYCAKLPSPYYYDSRFVWVAASYFDYWGQGTLVTVSS
VL: NFMLTQPPSASGTPGQRVTISCSGSSSNIGGNTVHWFQQLPGTAPKLLIYTNSLRPSGVPDRFSGSKSGTSASLAISGLQSEDEADYYCAAWDDSLNGQVFGGGTKLTVL
B3: 3I14-mHgL IgG1 (mature heavy chain, germline light chain) (antibody, V domains shown)
VH: QVQLLESGGGVVQPGRSLRLSCAASGFTFSNYGMHWVRQAPGKGLEWVAIISFDGSKKYYANSVKGRSTISRDNSKNTLSLQMNSLGPEDTALYYCAKLPSPYYFDSRFVWVAASAFHFWGQGILVTVSS
VL: not shown
B4: F10 scFvFc (scFv, V domains shown)
VH: QVQLVQSGAEVKKPGSSVKVSCTSSEVTFSSFAISWVRQAPGQGLEWLGGISPMFGTPNYAQKFQGRVTITADQSTRTAYMDLRSLRSEDTAVYYCARSPSYICSGGTCVFDHWGQGTLVTVSS
VL: QPGLTQPPSVSKGLRQTATLTCTGNSNNVGNQGAAWLQQHQGHPPKLLSYRNNDRPSGISERFSASRSGNTASLTITGLQPEDEADYYCSTWDSSLSAVVFGGGTKLTVL

Experiments:
Conditions in all cases: both partners purified
[1] = target: T1, Recombinant full-length HA of A/Vietnam/1203/04 (H5-VN04) (Influenza A virus A/Vietnam/1203/2004 …, UniProt Q5EP31); test: ELISA
[2] = target: Recombinant full-length HA of A/California/04/09 (H1-CA09) (influenza A virus A/California/04/09, UniProt C3W5S1); test: BLI
[3] = target: T1, Recombinant full-length HA of …; test: BLI

Row | Binder | binding result [1] | Kd [2] | koff [2] | kon [2] | Kd [3] | koff [3] | kon [3]
1 | B1 | binds |  |  |  |  |  | 
2 | B2 |  | < 0.001 nM | < 1e-07 s⁻¹ | 155000 M⁻¹ s⁻¹ | 1.95 nM | 0.000844 s⁻¹ | 434000 M⁻¹ s⁻¹
3 | B3 |  | < 0.001 nM | < 1e-07 s⁻¹ | 138000 M⁻¹ s⁻¹ |  |  | 
4 | B4 | binds |  |  |  |  |  | 
